From paper PMC9580340 (Science (New York, N.y.), 2022) come the findings set out here.

For experiment [1], the target named is SARS-CoV-2 B.1.1.529 (Omicron; BA.1) spike, full length, on transfected 293T cells (SARS-CoV-2 B.1.1.529 (Omicron BA.1), A67V | H69del | V70del | T95I | G142D | V143del | Y144del | Y145del | N211del | …). Nature of the experiment: flow cytometry on cells. The following applies: one partner purified.
The target of experiment [2] is T1, SARS-CoV-2 D614G spike, full length, on transfected 293T cells (SARS-CoV-2, QHD43416.1 (Wuhan-Hu-1) …, UniProt A0A6H1PJZ3, D614G).
T1 construct: also called ancestral D614G spike
Nature of the experiment: flow cytometry on cells. The note with it: one partner purified.

In experiment [3] the target is T2, SARS-CoV-2 B.1.1.529 (Omicron) S2P spike, trimeric ectodomain (cryo-EM) (SARS-CoV-2 B.1.1.529 (Omicron BA.1), …, A67V | H69del | V70del | T95I | G142D | V143del | Y144del | Y145del | N211del | …).
T2 construct: also called B.1.1.529 spike; B.1.1.529 S2P spike
Put plainly: cryo-EM structure. The note with it: both partners purified.

B1: A19-46.1 IgG1 (antibody, V domains shown)
VH: QVQLVESGGGVVQPGRSLRLSCAASGFTLSSYGMHWVRQAPGKGLEWVAVISYDGSNKYYVDSVKGRFTISRDNSKNTLYLQMNSLRAEDTAVYYCARGWAYWELLPDYYYGMDVWGQGTTVTVSS
VL: QTVVTQEPSFSVSPGGTVTLTCGLSSGSVSTAYFPSWYQQTPGQAPRTLIYGTNTRSSGVPDRFSGSILGNKAALTITGAQADDESDYYCVLYMGRGIVVFGGGTKLTVL
Turning to B1, the “binding as percent of D614G” value in experiment [1] is 47 % of D614G. The binding result in experiment [2] is “binds”.

B2: Fab A19-46.1 (Fab, V domains shown)
VH: B1 VH
VL: B1 VL
notes: 17-residue-long CDR H3
In the case of B2, in experiment [3], the “stoichiometry N” value was 2 Fabs per spike trimer.

B3: A19-61.1 IgG1 (antibody, V domains shown)
VH: QVQLVESGGGVVQPGRSLRLSCAASGFTFSSYAFHWVRQAPGKGLEWVAVISYDGSNQYYADSVKGRFTISRDNSKNTLYLQMNSLRADDTAVYYCARDLAIAVAGTWHYYNGMDVWGQGTTVTVSS
VL: DIQMTQSPSSVSASVGDRVIITCRASQGISSWLAWYQQKPGKAPKVLIYDASSLQSGVPSRFSGSGYGTDFTLTISSLQPEDSATYYCQQAKSFPITFGQGTRLEIK
In the case of B3, in experiment [2], the binding result is “binds”.
